PMC7881195

Legend:
[1] = target: C. elegans PGL-1 N-terminal dimerization domain (NtDD), wild-type (C. elegans); experiment: SEC-MALS; C. elegans PGL-1 NtDD wild-type and mutants injected at 1 mg/ml in HNT buffer (20 mM HEPES pH 7.4, 100 mM NaCl, 0.5 mM TCEP) on a SEC 650 sizing column, 0.4 ml/min
[2] = target: C. elegans PGL-3 N-terminal dimerization domain (NtDD), wild-type (C. elegans); experiment: SEC-MALS; C. elegans PGL-3 NtDD wild-type and mutant, 500 µl at 1 mg/ml in HNT buffer (20 mM HEPES pH 7.5, 100 mM NaCl, 0.5 mM TCEP) on Superdex 75 10/300 GL, 0.5 ml/min, 20 °C

Substance	stoichiometry N [1]	stoichiometry N [2]
C. elegans PGL-1 N-terminal dimerization domain (NtDD), wild-type (domain or fragment)	2	–
C. elegans PGL-3 N-terminal dimerization domain (NtDD), wild-type (domain or fragment)	–	2
